What all share (settings): remark: other sources report otherwise
In assay [1] the target is recombinant soluble homotrimeric HA of A/Japan/305/57 (H2N2) (Influenza A virus A/Japan/305/1957 (H2N2)). Description: HA microarray, BCC supernatant.
In assay [2] the target is recombinant soluble homotrimeric HA of A/chicken/Vietnam/NCVD-016/08 (H5N1) (Influenza A virus A/chicken/Vietnam/NCVD-016/2008 (H5N1)). As to the kind of experiment: HA microarray, BCC supernatant.
For assay [3], the target named is recombinant soluble homotrimeric HA of A/California/4/09 (H1N1) (Influenza A virus A/California/04/2009 (H1N1)). Description: HA microarray, BCC supernatant.
In assay [4] the target is recombinant soluble homotrimeric HA of A/Egypt/3300-NAMRU3/08 (H5N1) (Influenza A virus A/Egypt/3300-NAMRU3/2008 (H5N1)). Description: HA microarray, BCC supernatant.
Assay [5] deals with recombinant soluble homotrimeric HA of A/northern shoveler/California/HKWF115/2007 (H6N1) (Influenza A virus A/northern shoveler/California/HKWF115/2007 (H6N1)). As to the kind of experiment: HA microarray, BCC supernatant.
For assay [6], the target named is recombinant soluble homotrimeric HA of A/Anhui/1/05 (H5N1) (Influenza A virus A/Anhui/1/2005 (H5N1)). Description: HA microarray, BCC supernatant.
For assay [7], the target named is recombinant soluble homotrimeric HA of A/Wisconsin/67/05 (H3N2) (Influenza A virus A/Wisconsin/67/2005 (H3N2)). As to the kind of experiment: HA microarray, BCC supernatant.
Assay [8] concerns the target recombinant soluble homotrimeric HA of A/Indonesia/5/05 (H5N1) (Influenza A virus A/Indonesia/5/2005 (H5N1)). As to the kind of experiment: HA microarray, BCC supernatant.
The target of assay [9] is recombinant soluble homotrimeric HA of A/Vietnam/1203/04 (H5N1) (Influenza A virus A/Vietnam/1203/2004 (H5N1)). Description: HA microarray, BCC supernatant.
The target in assay [10] is recombinant soluble homotrimeric HA of A/Solomon Islands/3/06 (H1N1) (Influenza A virus A/Solomon Islands/3/2006 (H1N1)). As to the kind of experiment: HA microarray, BCC supernatant.
The target of assay [11] is recombinant soluble homotrimeric HA of A/duck/Yangzhou/02/2005 (H8N4) (Influenza A virus A/duck/Yangzhou/02/2005 (H8N4)). Description: HA microarray, BCC supernatant.
Assay [12] concerns the target recombinant homotrimeric HA, A/Hong Kong/1073/99 H9N2 (Influenza A virus A/Hong Kong/1073/99 (H9N2)). Description: trimeric HA microarray; transfection supernatant set 3.
The target of assay [13] is recombinant homotrimeric HA, A/Solomon Islands/3/06 H1N1 (Influenza A virus A/Solomon Islands/3/06 (H1N1)). The description is as above.
The target of assay [14] is recombinant homotrimeric HA, A/Anhui/1/05 H5N1 (Influenza A virus A/Anhui/1/05 (H5N1)). The description is as above.
For assay [15], the target named is T1, recombinant homotrimeric HA, A/Wisconsin/67/05 H3N2 (Influenza A virus A/Wisconsin/67/05 (H3N2)). Described as above.
Assay [16] addresses recombinant homotrimeric HA, A/common magpie/Hong Kong/5052/07 H5N1 (Influenza A virus A/common magpie/Hong Kong/5052/07 (H5N1)). The assay is described as above.
The target of assay [17] is recombinant homotrimeric HA, A/Japan/305/57 H2N2 (Influenza A virus A/Japan/305/57 (H2N2)). The assay is described as above.
Assay [18] has as its target recombinant homotrimeric HA, A/northern shoveler/California/HKWF115/07 (Influenza A virus A/northern shoveler/California/HKWF115/2007 (H6N1; Table 16 prints H6N4)). The assay is described as above.
The target in assay [19] is recombinant homotrimeric HA, A/California/4/09 H1N1 (Influenza A virus A/California/4/09 (H1N1)). The assay is described as above.
In assay [20] the target is recombinant homotrimeric HA, A/Vietnam/1203/04 H5N1 (Influenza A virus A/Vietnam/1203/04 (H5N1)). The description is as above.
The target of assay [21] is recombinant homotrimeric HA, A/chicken/Vietnam/NCVD-016/08 H5N1 (Influenza A virus A/chicken/Vietnam/NCVD-016/08 (H5N1)). The description is as above.
Assay [22] has as its target recombinant homotrimeric HA, A/Egypt/3300-NAMRU3/08 H5N1 (Influenza A virus A/Egypt/3300-NAMRU3/08 (H5N1)). The assay is described as above.
The target of assay [23] is recombinant homotrimeric HA, A/South Carolina/1/18 H1N1 (Influenza A virus A/South Carolina/1/18 (H1N1)). Described as above.
Assay [24] has as its target recombinant homotrimeric HA, A/Indonesia/5/05 H5N1 (Influenza A virus A/Indonesia/5/05 (H5N1)). Described as above.
The target in assay [25] is T1, recombinant homotrimeric HA, …. As to the kind of experiment: trimeric HA microarray; transfection supernatant set 4.
Assay [26] has as its target recombinant soluble homotrimeric HA, A/chicken/Vietnam/NCVD-016/08 (H5N1) (influenza A virus A/chicken/Vietnam/NCVD-016/2008 (H5N1)). Description: microarray, trimeric HA, transfection supernatant.
Assay [27] concerns the target recombinant soluble homotrimeric HA, A/Hong Kong/1073/99 (H9N2) (influenza A virus A/Hong Kong/1073/99 (H9N2)). Description: microarray, trimeric HA, transfection supernatant.
In assay [28] the target is recombinant soluble homotrimeric HA, A/northern shoveler/California/HKWF115/2007 (H6N1) (influenza A virus A/northern shoveler/California/HKWF115/2007 (H6N1)). As to the kind of experiment: microarray, trimeric HA, transfection supernatant.
In assay [29] the target is recombinant soluble homotrimeric HA, A/Hong Kong/2108/03 (H9N2) (influenza A virus A/Hong Kong/2108/2003 (H9N2)). As to the kind of experiment: microarray, trimeric HA, transfection supernatant.

B1: TCN-533 (5256_A17) (antibody, V domains shown)
VH: QVQLVQSGADVKKPGSSVTVSCKASGGSFSNYGINWVRQAPGQGLEWMGGIIPLINAPNYAPKFQGRVTITADMFSNIVSLQLTSLRTDDTAVYYCARRKMTTAIDYWGQGTLVTVSS
VL: QPVLSQPPSASASLGASVTLTCTLSSGFDNYQVAWYQQRPGKGPRFVMRVGNGGNVASKGDGIPDRFSVSGSGLNRYLTIKNIQEDDESDYYCGADHGSGNNFVSPYVFGGGTKLTVL
Take B1: the Trimeric HA Binding RLU came to 10800 RLU in assay [1]; 47700 RLU in [2]; 29300 RLU in assay [3]; 34300 RLU in assay [4]; 41400 RLU in assay [5]; 8060 RLU in [6]. For the same molecule, the Trimeric HA Binding RLU in assay [7] worked out at 13800 RLU; in assay [8], 44100 RLU; in assay [9], 5680 RLU; in assay [10], 39200 RLU; in assay [11], 24700 RLU. Also, the Trimeric HA Binding: RLU in [12] was found to be 23800 RLU; in [13], 15500 RLU; in [14], 301 RLU; in assay [15] it was 16100 RLU; in [16], 25200 RLU; in assay [17] it was 18600 RLU. Also, the Trimeric HA Binding: RLU amounted to 7810 RLU in assay [18]; 6880 RLU in assay [19]; 11700 RLU in assay [20]; 24600 RLU in [21]; 18600 RLU in assay [22]; 16400 RLU in assay [23]. In addition, the Trimeric HA Binding: RLU in [24] came out at 28300 RLU.

B2: TCN-534 (5249_B02) (antibody, V domains shown)
VH: QVQLVQSGAEVKKPGSSVKVSCRESGGTFNGYTITWVRQAPGQGLEWMGGIIPMMGTVNYAQKLQGRVTITTDYFTKTAYMDLNNLRSEDTAMYYCVKIRYTGQQLLWGQGTLVTVSS
VL: DIQMTQSPSTLSASIGDRVTITCRASQSIASWLAWYQQKPGKAPKLLIYEAVNLESGVPSRFSGSGSGTDFTLTISSLQPDDFATYFCQHYGTISQTFGGGTKVEIK
Take B2: the Trimeric HA Binding: RLU in assay [25] was found to be 897 RLU. Besides, the Trimeric HA Binding RLU amounted to 50600 RLU in assay [1]; 56600 RLU in [2]; 30100 RLU in assay [3]; 41400 RLU in assay [4]; 52400 RLU in assay [5]; 6860 RLU in assay [6]. For the same molecule, the Trimeric HA Binding RLU was determined as 7980 RLU in assay [7]; 46400 RLU in assay [8]; 3440 RLU in [9]; 44200 RLU in [10]; 46500 RLU in assay [11]; 11400 RLU in assay [26]. The Trimeric HA Binding RLU in assay [27] came out at 731 RLU; in assay [28], 21300 RLU; in [29], 27 RLU.
